Data set [1] addresses T1, GB1-His6-SRSF2 RRM wild type (Homo sapiens, UniProt Q01130 9-101).
T1 sequence: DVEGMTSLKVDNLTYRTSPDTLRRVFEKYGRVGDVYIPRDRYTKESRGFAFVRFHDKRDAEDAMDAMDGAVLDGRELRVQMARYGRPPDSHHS
As to the kind of experiment: ITC. (In ITC the heat of successive injections is recorded.)

Data set [2] addresses T1, GB1-His6-SRSF2 RRM wild type. As to the kind of experiment: NMR chemical shift titration.

One may read the Kd as the free concentration of one partner at which half of the binding sites on the other are occupied at equilibrium, for simple one-to-one binding.

AGCAGAGUA (ssRNA) [9-mer AGCAGAGUA]: the equilibrium dissociation constant (Kd) in data set [1] came to 0.061 ± 0.001 µM. Turning to GAGUA (ssRNA) [5-mer GAGUA], in data set [2], the dissociation constant Kd was around 500 µM.

These data come from paper PMC3326313.
